Test results as given in article PMC7114298.

Molecular target: MERS-CoV PLpro-[change] (wild type) (MERS-CoV) (UniProt K9N7C7)

## Ub-AMC (from UniProt P0CG48 1-76) (natural protein)
  Km of Ub-AMC hydrolysis (steady-state kinetics, 25 °C): 16.6 µM
